According to PMC7405475:

Biological target: His6-maltose binding protein-SARS-CoV-2 N3 (spacer B/N3 region, residues 365-419) (SARS-CoV-2) (UniProt P0DTC9)
Assay: SEC-MALS

His6-maltose binding protein-SARS-CoV-2 N3 (spacer B/N3 region, residues 365-419) (from UniProt P0DTC9 365-419) (domain or fragment)
stoichiometry N: 2
